# Data taken from patent US20210388087A1 (Chugai, published 2021).
# Where a chain is given by its changes, count along the chain named.
# B1: CE115HA000 Y100L (antibody, human IgG1, kappa, L234A L235A, N297A, name in Kabat numbering)
# heavy: QVQLVESGGGVVQPGRSLRLSCAASGFTFSNAWMHWVRQAPGKGLEWVAQIKAKSNNYATYYAESVKGRFTISRDDSKNSLYLQMNSLKTEDTAVYYCRYVHYGALYGVDAWGQGTTVTVSSASTKGPSVFPLAPSSKSTSGGTAALGCLVKDYFPEPVTVSWNSGALTSGVHTFPAVLQSSGLYSLSSVVTVPSSSLGTQTYICNVNHKPSNTKVDKKVEPKSCDKTHTCPPCPAPEAAGGPSVFLFPPKPKDTLMISRTPEVTCVVVDVSHEDPEVKFNWYVDGVEVHNAKTKPREEQYASTYRVVSVLTVLHQDWLNGKEYKCKVSNKALPAPIEKTISKAKGQPREPQVYTLPPSRCELTKNQVSLSCAVKGFYPSDIAVEWESNGQPENNYKTTPPVLDSDGSFFLVSKLTVDKSRWQQGNVFSCSVMHEALHNHYTQKSLSLSPDYKDDDDK
# chain: EPKSSDKTHTCPPCPAPELLGGPSVFLFPPKPKDTLMISRTPEVTCVVVDVSHEDPEVKFNWYVDGVEVHNAKTKPREEQYNSTYRVVSVLTVLHQDWLNGKEYKCKVSNKALPAPIEKTISKAKGQPREPQVCTLPPSRDELTKNQVSLWCLVKGFYPSDIAVEWESNGQPENNYKTTPPVLDSDGSFFLYSKLTVDKSRWQQGNVFSCSVMHEALHNRYTQKSLSLSP
# light: DIVMTQSPLSLPVTPGEPASISCRSSQSLVHSNRNTYLHWYQQKPGQAPRLLIYKVSNRFSGVPDRFSGSGSGTDFTLKISRVEAEDVGVYYCGQGTQVPYTFGQGTKLEIKRTVAAPSVFIFPPSDEQLKSGTASVVCLLNNFYPREAKVQWKVDNALQSGNSQESVTEQDSKDSTYSLSSTLTLSKADYEKHKVYACEVTHQGLSSPVTKSFNRGEC
# notes: one-arm antibody
# B2: CE115HA000 Y100W (antibody, human IgG1, kappa, L234A L235A, N297A, name in Kabat numbering)
# heavy: B1 heavy with L106W
# chain: B1 chain
# light: B1 light
# notes: one-arm antibody
# B3: CE115HA000 Y100Q (antibody, human IgG1, kappa, L234A L235A, N297A, name in Kabat numbering)
# heavy: B1 heavy with L106Q
# chain: B1 chain
# light: B1 light
# notes: one-arm antibody
# B4: CE115HA000 Y100aD (antibody, human IgG1, kappa, L234A L235A, N297A, name in Kabat numbering)
# heavy: B1 heavy with L106Y, Y107D
# chain: B1 chain
# light: B1 light
# notes: one-arm antibody
# B5: CE115HA000 Y100S (antibody, human IgG1, kappa, L234A L235A, N297A, name in Kabat numbering)
# heavy: B1 heavy with L106S
# chain: B1 chain
# light: B1 light
# notes: one-arm antibody
# B6: CE115HA000 Y100aF (antibody, human IgG1, kappa, L234A L235A, N297A, name in Kabat numbering)
# heavy: B1 heavy with L106Y, Y107F
# chain: B1 chain
# light: B1 light
# notes: one-arm antibody
# B7: CE115HA000 Y100aG (antibody, human IgG1, kappa, L234A L235A, N297A, name in Kabat numbering)
# heavy: B1 heavy with L106Y, Y107G
# chain: B1 chain
# light: B1 light
# notes: one-arm antibody
# B8: CE115HA000 Y100V (antibody, human IgG1, kappa, L234A L235A, N297A, name in Kabat numbering)
# heavy: B1 heavy with L106V
# chain: B1 chain
# light: B1 light
# notes: one-arm antibody
# B9: CE115HA000 Y100P (antibody, human IgG1, kappa, L234A L235A, N297A, name in Kabat numbering)
# heavy: B1 heavy with L106P
# chain: B1 chain
# light: B1 light
# notes: one-arm antibody
# B10: CE115HA000 Y100aA (antibody)
# heavy: B1 heavy with L106Y, Y107A
# Fc: B1 chain
# light: B1 light
# notes: one-arm antibody
# Biological target: T1, CD3 epsilon homodimer protein (UniProt P07766 23-126)
# T1 construct: also called CD3 (CD3 epsilon)
# Experiment: SPR, CD3 epsilon homodimer on chip, one-arm antibody as analyte;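 further: surface plasmon resonance at 25 °C with CD3 epsilon homodimer amine-coupled to a CM4 sensor chip, antibody injected as analyte, HBS-EP+ as running buffer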
# T1 sequence (P07766 23-126): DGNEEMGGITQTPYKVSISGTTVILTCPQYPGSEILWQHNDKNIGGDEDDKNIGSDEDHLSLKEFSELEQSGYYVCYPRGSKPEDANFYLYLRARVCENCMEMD
row,Binder,KD ratio (KD of CE115HA000/KD of altered form)
1,B1,0.67
2,B2,0.96
3,B3,0.77
4,B4,1.2
5,B5,0.7
6,B6,0.98
7,B7,1.01
8,B8,0.92
9,B9,1.3
10,B10,0.66
